The values below come from patent US20220119828.

The series concerns the target T1, AcTPase4xOs (enhanced, rice codon-optimized Ac transposase with SV40 NLS) (Zea mays (engineered)) (UniProt P08770).
T1 sequence (P08770 whole entry, looked up): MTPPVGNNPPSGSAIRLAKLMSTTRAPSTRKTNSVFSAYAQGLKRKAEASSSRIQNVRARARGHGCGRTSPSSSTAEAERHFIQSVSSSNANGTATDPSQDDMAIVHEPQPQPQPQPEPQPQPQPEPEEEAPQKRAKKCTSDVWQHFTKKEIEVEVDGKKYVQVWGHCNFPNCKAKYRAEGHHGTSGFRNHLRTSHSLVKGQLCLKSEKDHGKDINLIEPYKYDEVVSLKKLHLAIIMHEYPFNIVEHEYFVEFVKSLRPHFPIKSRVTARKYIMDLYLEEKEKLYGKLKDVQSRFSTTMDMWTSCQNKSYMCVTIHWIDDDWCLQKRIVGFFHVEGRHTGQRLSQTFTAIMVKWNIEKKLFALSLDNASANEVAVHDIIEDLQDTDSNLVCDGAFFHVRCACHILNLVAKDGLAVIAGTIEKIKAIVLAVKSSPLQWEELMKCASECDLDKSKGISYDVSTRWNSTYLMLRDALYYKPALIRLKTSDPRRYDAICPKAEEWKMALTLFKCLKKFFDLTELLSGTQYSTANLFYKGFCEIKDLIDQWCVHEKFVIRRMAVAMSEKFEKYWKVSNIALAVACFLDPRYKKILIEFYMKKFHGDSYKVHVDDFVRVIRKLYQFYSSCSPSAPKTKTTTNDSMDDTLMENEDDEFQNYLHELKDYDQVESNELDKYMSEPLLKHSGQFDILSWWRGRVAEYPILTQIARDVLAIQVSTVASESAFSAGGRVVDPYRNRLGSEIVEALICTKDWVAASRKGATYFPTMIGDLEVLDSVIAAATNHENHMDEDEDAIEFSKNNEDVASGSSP
Briefly: cell_activity. The conditions noted are these: pZEN31E in rice callus, heat shock 42 C 90 min; 81.1% without heat shock; 0% for pZEN30NC lacking transposase.

Turning to “CAGGGATGAAAGTAGGATGGGAAAATCCCGTACCGACCGTTATCGTATAACCGATTTTGTTAGTTTTATCCCGATCGATTTCGAACCCGAGGTAAAAAACGAAAACGGAACGGAAACGGGATATACAAAACGGTAAACGGAAACGGAAACGGTAGAGCTAGTTTCCCGACCGTTTCACCGGGATCCCGTTTTTAATCGGGATGATCCCGTTTCGTTACCGTATTTTCTAATTCGGGATGACTGCAATATGGCCAGCTCCAACTCCCATCCATAACCACTGAGGCCCAGCCCATGTAAGAATGCTCCAGATTTATATGGATTTTATCTATGTTTAATTAAGACTTGTGTTTACAATTTTTTATATTTGTTTTTAAGTTTTGAATATATGTTTTCATGTGTGATTTTACCGAACAAAAATACCGGTTCCCGTCCGATTTCGACTTTAACCCGACCGGATCGTATCGGTTTTCGATTACCGTATTTATCCCGTTCGTTTTCGTTACCGGTATATCCCGTTTTCGTTTCCGTCCCGCAAGTTAAATATGAAAATGAAAACGGTAGAGGTATTTTACCGACCGTTACCGACCGTTTTCATCCCTA (double strand)”, the activity (% callus lines with excision) was 95.1.
